From US20250074942A1, “COMPOSITIONS AND METHODS FOR COVALENT PEPTIDE-BASED MODULATORS OF HLA-E” (Calico Life Sciences LLC, priority 2022, published 2025)
Where no end group is shown, it is not given here. The star is where a group is joined. FITC = O=C1OC2(c3ccc(O)cc3Oc3cc(O)ccc32)c2ccc(NC(=S)*)cc21; mSF = 3-benzenesulfonyl fluoride, O=S(=O)(F)c1cccc(*)c1

Assays:
[1] = molecular target: T1, HLA-E (Homo sapiens, UniProt P13747); assay: Binding to HLA-E by Fluorescence Polarization (FP); conditions: Table 18
T1 construct: [HLAE(hu)(22-305)]-Avitag]; made in house
T1 sequence (P13747 22-305): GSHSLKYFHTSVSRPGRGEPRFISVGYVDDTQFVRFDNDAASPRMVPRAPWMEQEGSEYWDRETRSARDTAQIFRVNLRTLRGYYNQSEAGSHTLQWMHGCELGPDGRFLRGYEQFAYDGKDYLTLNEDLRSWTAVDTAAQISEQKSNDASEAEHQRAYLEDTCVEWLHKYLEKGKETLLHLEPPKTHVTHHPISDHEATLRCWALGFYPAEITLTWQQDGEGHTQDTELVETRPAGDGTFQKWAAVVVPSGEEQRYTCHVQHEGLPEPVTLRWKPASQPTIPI
T1 sequence (P61769 21-119 partner): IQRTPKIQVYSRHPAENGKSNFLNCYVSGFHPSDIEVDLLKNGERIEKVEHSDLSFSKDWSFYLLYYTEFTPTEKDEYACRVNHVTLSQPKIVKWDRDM
Procedure: This example describes the analysis of binding of modified VL9 based peptides to HLA-E by Fluorescence Polarization (FP).
Briefly, proteins and VL9 or Qdm derived peptides were produced as described in EXAMPLE 2 and EXAMPLE 3 and binding to HLA-E was measured with Fluorescence Polarization.

[2] = molecular target: T2, CD94/NKG2A binding to HLA-E (Homo sapiens, UniProt P13747); assay: Biolayer interferometry (BLI): inhibition of CD94/NKG2A binding to peptide-loaded HLA-E; conditions: for BLI result: BLOD = below the limit of detection
T2 construct: [HLAE(hu)(22-305)]-Avitag]; made in house
T2 sequence (P13747 22-305): as the sequence (P13747 22-305) above
T2 sequence (P61769 21-119 partner): as the sequence (P61769 21-119 partner) above
Procedure: Proteins were produced as described in EXAMPLE 2 and peptides were synthesized as described in EXAMPLE 3.
BLI was performed on a ForteBio Octet Red96e instrument. All proteins were diluted in 1× Kinetic Buffer (10× Kinetic buffer, Sartorius 181105) diluted in 1×PBS. A Blocking Buffer step was introduced to lower non-specific binding to the streptavidin (SA) tips by diluting 5% bovine serum albumin (BSA) and 20 μg/mL Biocytin (Sigma B4261) in 1× Kinetic Buffer. Refolded and biotinylated [HLA-E+VL9] complexes were loaded onto SA biosensors (Forte 18-5019) at ˜5 μg/ml (100 nM) with the following steps: 60 sec baseline in 1× Kinetic Buffer, 180 sec loading, 60 sec blocking in Blocking Buffer and 60 sec baseline in 1× Kinetic Buffer, all at 25° C. and 1000 rpm. hSCD and oaFC-hSCD binding to immobilized HLA-E/B2M complexes was monitored at 200 nM by a 90 sec association step, followed by a 120 sec dissociation step. Data correction was performed as follows: first, aligning the data to the average of the last baseline step on the y-axis; second, by aligning the data to the dissociation step for inter-step correction; and third by filtering the data using Savitzky-Golay Filtering.
This example describes the analysis of inhibition of CD94-NKG2A binding to HLA-E by exemplary modified peptides by bio-layer interferometry (BLI).
Briefly, proteins and VL9 or Qdm derived peptides were produced as described in EXAMPLE 2 and EXAMPLE 3. BLI measurements to determine inhibition were performed as described in EXAMPLE 4.

[3] = molecular target: T1, HLA-E; assay: Cross-linking of electrophilic peptides with [HLA-E+VL9], covalently bound HLA-E by LC-MS; assay type: binding; conditions: peptide in 10-fold excess with [HLA-E+VL9], 4 h at 37° C.
Procedure: The Cys peptide variants were equipped with a mSF warhead in a Pd-mediated coupling using Pd oxidative addition complex 1 (FIGS. 6A and 6B) X* indicating position functionalized with the electrophilic warhead). Electrophilic analogs of VL9 were subjected to cross-linking reactions in a 10-fold excess with [HLA-E+VL9] for 4 h at 37° C., and the amount of covalently bound HLA-E was determined by LC-MS as described in EXAMPLE 4.
Briefly, crosslinking reactions were performed as described in EXAMPLE 5.

[4] = Table 13, inhibition of CD94-NKG2A binding to HLA-E

Substance: ALCAPRLCL (cysteine pairing not given here) [Peptide P21]
- FP result [1]: Binding

Substance: AMCGALCLF (cysteine pairing not given here) [Peptide P32]
- FP result [1]: Binding

Substance: Ala-Leu-Cys-Ala-Pro-Arg-Leu-Cys-Leu-Gly-Gly-Lys(FITC) (ALCAPRLCLGGK(FITC); cysteine pairing not given here) [P21(FITC)]
- FP result [1]: Binding

Substance: Ala-Leu-Cys-Arg-Trp-Arg-Cys-Leu-Tyr-Gly-Gly-Lys(FITC) (ALCRWRCLYGGK(FITC); cysteine pairing not given here) [P28(FITC)]
- FP result [1]: Binding

Substance: Ala-Leu-Cys-Trp-Arg-Val-Pro-Cys-Thr (ALCWRVPCT-NH2; cysteine pairing not given here) [Peptide P20]
- FP result [1]: Binding

Substance: Ala-Leu-Cys-Trp-Arg-Val-Pro-Cys-Thr-Gly-Gly-Lys(FITC) (H-ALCWRVPCTGGK(FITC)-NH2; cysteine pairing not given here) [P20(FITC)]
- FP result [1]: Binding

Substance: Ala-Leu-Cys-Trp-His-Val-Pro-Cys-Gln-Gly-Gly-Lys(FITC) (ALCWHVPCQGGK(FITC); cysteine pairing not given here) [P23(FITC)]
- FP result [1]: Binding

Substance: Ala-Met-Cys-Gly-Ala-Leu-Cys-Leu-Phe-Gly-Gly-Lys(FITC) (AMCGALCLFGGK(FITC); cysteine pairing not given here) [P32(FITC)]
- FP result [1]: Binding

Substance: Gly-hAr-Nle-hAr-Gln-Mff-Ala-Cha-hAr-Leu [Peptide G1_B9]
- BLI result ([2]; Table 15, peptides with additional amino acids at the N-terminus): inhibition

Substance: Lys(TAMRA)-Nle-hAr-Gln-Mff-Ala-Cha-hAr-Leu [B9_1Lys(TAMRA)]
- BLI result [2, 4]: inhibition

Substance: NH2-Cha-hAr-Ala-Leu-hAr-Gln-Met-Mff-hAr-OH [Peptide B5.scrambled]
- inhibition of CD94/NKG2A binding (in words) ([2]; BLI, CD94-NKG2A 200 nM): no inhibition of binding

Substance: NH2-Cys(mSF)-Met-Ala-Pro-Arg-Thr-Leu-Phe-Leu-OH (H-C(mSF)MAPRTLFL-OH; SMILES CSCC[C@H](NC(=O)[C@@H](N)CSc1cccc(S(=O)(=O)F)c1)C(=O)N[C@@H](C)C(=O)N1CCC[C@H]1C(=O)N[C@@H](CCCNC(=N)N)C(=O)N[C@H](C(=O)N[C@@H](CC(C)C)C(=O)N[C@@H](Cc1ccccc1)C(=O)N[C@@H](CC(C)C)C(=O)O)[C@@H](C)O) [VL9—1Cys(mSF)]
- cross-linking with HLA-E (in words) [3]: no or only trace amounts of cross-linking

Substance: NH2-Val-Cys(mSF)-Ala-Pro-Arg-Thr-Leu-Phe-Leu-OH (H-VC(mSF)APRTLFL-OH; SMILES CC(C)C[C@H](NC(=O)[C@H](Cc1ccccc1)NC(=O)[C@H](CC(C)C)NC(=O)[C@@H](NC(=O)[C@H](CCCNC(=N)N)NC(=O)[C@@H]1CCCN1C(=O)[C@H](C)NC(=O)[C@H](CSc1cccc(S(=O)(=O)F)c1)NC(=O)[C@@H](N)C(C)C)[C@@H](C)O)C(=O)O) [VL9—2Cys(mSF)]
- cross-linking with HLA-E (in words) [3]: no or only trace amounts of cross-linking

Substance: NH2-Val-Met-Ala-Cys(mSF)-Arg-Thr-Leu-Phe-Leu-OH (H-VMAC(mSF)RTLFL-OH; SMILES CSCC[C@H](NC(=O)[C@@H](N)C(C)C)C(=O)N[C@@H](C)C(=O)N[C@@H](CSc1cccc(S(=O)(=O)F)c1)C(=O)N[C@@H](CCCNC(=N)N)C(=O)N[C@H](C(=O)N[C@@H](CC(C)C)C(=O)N[C@@H](Cc1ccccc1)C(=O)N[C@@H](CC(C)C)C(=O)O)[C@@H](C)O) [VL9—4Cys(mSF)]
- amount of covalently bound (cross-linked) HLA-E [3]: 36%

Substance: NH2-Val-Met-Ala-Pro-Arg-Cys(mSF)-Leu-Phe-Leu-OH (H-VMAPRC(mSF)LFL-OH; SMILES CSCC[C@H](NC(=O)[C@@H](N)C(C)C)C(=O)N[C@@H](C)C(=O)N1CCC[C@H]1C(=O)N[C@@H](CCCNC(=N)N)C(=O)N[C@@H](CSc1cccc(S(=O)(=O)F)c1)C(=O)N[C@@H](CC(C)C)C(=O)N[C@@H](Cc1ccccc1)C(=O)N[C@@H](CC(C)C)C(=O)O) [VL9—6Cys(mSF)]
- cross-linking with HLA-E (in words) [3]: no or only trace amounts of cross-linking

Substance: NH2-Val-Met-Ala-Pro-Arg-Thr-Cys(mSF)-Phe-Leu-OH (H-VMAPRTC(mSF)FL-OH; SMILES CSCC[C@H](NC(=O)[C@@H](N)C(C)C)C(=O)N[C@@H](C)C(=O)N1CCC[C@H]1C(=O)N[C@@H](CCCNC(=N)N)C(=O)N[C@H](C(=O)N[C@@H](CSc1cccc(S(=O)(=O)F)c1)C(=O)N[C@@H](Cc1ccccc1)C(=O)N[C@@H](CC(C)C)C(=O)O)[C@@H](C)O) [VL9—7Cys(mSF)]
- amount of covalently bound (cross-linked) HLA-E [3]: 22%

Substance: NH2-Val-Met-Ala-Pro-Arg-Thr-Leu-Cys(mSF)-Leu-OH (H-VMAPRTLC(mSF)L-OH; SMILES CSCC[C@H](NC(=O)[C@@H](N)C(C)C)C(=O)N[C@@H](C)C(=O)N1CCC[C@H]1C(=O)N[C@@H](CCCNC(=N)N)C(=O)N[C@H](C(=O)N[C@@H](CC(C)C)C(=O)N[C@@H](CSc1cccc(S(=O)(=O)F)c1)C(=O)N[C@@H](CC(C)C)C(=O)O)[C@@H](C)O) [VL9—8Cys(mSF)]
- amount of covalently bound (cross-linked) HLA-E [3]: 87%
- able to reduce the binding of CD94-NKG2A to HLA-E (in words) ([2]; BLI after a 2 h incubation of [HLA-E+VL9] with the electrophilic peptide): not
- BLI result [2, 4]: inhibition

Substance: NH2-Val-Met-Ala-Pro-Arg-Thr-Leu-Phe-Cys(mSF)-OH (H-VMAPRTLFC(mSF)-OH; SMILES CSCC[C@H](NC(=O)[C@@H](N)C(C)C)C(=O)N[C@@H](C)C(=O)N1CCC[C@H]1C(=O)N[C@@H](CCCNC(=N)N)C(=O)N[C@H](C(=O)N[C@@H](CC(C)C)C(=O)N[C@@H](Cc1ccccc1)C(=O)N[C@@H](CSc1cccc(S(=O)(=O)F)c1)C(=O)O)[C@@H](C)O) [VL9—9Cys(mSF)]
- cross-linking with HLA-E (in words) [3]: no or only trace amounts of cross-linking

Substance: NH2-Val-Met-Ala-Pro-Cys(mSF)-Thr-Leu-Phe-Leu-OH (H-VMAPC(mSF)TLFL-OH; SMILES CSCC[C@H](NC(=O)[C@@H](N)C(C)C)C(=O)N[C@@H](C)C(=O)N1CCC[C@H]1C(=O)N[C@@H](CSc1cccc(S(=O)(=O)F)c1)C(=O)N[C@H](C(=O)N[C@@H](CC(C)C)C(=O)N[C@@H](Cc1ccccc1)C(=O)N[C@@H](CC(C)C)C(=O)O)[C@@H](C)O) [VL9—5Cys(mSF)]
- cross-linking with HLA-E (in words) [3]: no or only trace amounts of cross-linking

Substance: NH2-Val-Met-Cys(mSF)-Pro-Arg-Thr-Leu-Phe-Leu-OH (H-VMC(mSF)PRTLFL-OH; SMILES CSCC[C@H](NC(=O)[C@@H](N)C(C)C)C(=O)N[C@@H](CSc1cccc(S(=O)(=O)F)c1)C(=O)N1CCC[C@H]1C(=O)N[C@@H](CCCNC(=N)N)C(=O)N[C@H](C(=O)N[C@@H](CC(C)C)C(=O)N[C@@H](Cc1ccccc1)C(=O)N[C@@H](CC(C)C)C(=O)O)[C@@H](C)O) [VL9—3Cys(mSF)]
- amount of covalently bound (cross-linked) HLA-E [3]: 73%

Substance: hAr-Nle-hAr-Gln-Lys(CUM)-Ala-Cha-hAr-Leu [B9_5Lys(CUM)]
- BLI result [2, 4]: inhibition

Substance: hAr-Nle-hAr-Gln-Lys(DOTA)-Ala-Cha-hAr-Leu [B9_5Lys(DOTA)]
- BLI result [2, 4]: inhibition

Substance: hAr-Nle-hAr-Gln-Lys(FITC)-Ala-Cha-hAr-Leu [B9_5Lys(FITC)]
- BLI result [2, 4]: inhibition

Substance: hAr-Nle-hAr-Gln-Lys(TAMRA)-Ala-Cha-hAr-Leu [B9_5Lys(TAMRA)]
- BLI result [2, 4]: inhibition

Substance: hAr-Nle-hAr-Gln-Lys(ibu)-Ala-Cha-hAr-Leu [B9_5Lys(ibu)]
- BLI result [2, 4]: inhibition

Substance: hAr-Nle-hAr-Gln-Mff-Ala-Cha-Lys(TAMRA)-Leu [B9_8Lys(TAMRA)]
- BLI result [2, 4]: inhibition

Substance: hAr-Nle-hAr-Gln-Mff-Ala-Cha-Lys(ibu)-Leu [B9_8Lys(ibu)]
- BLI result [2, 4]: inhibition

Substance: hAr-Nle-hAr-Gln-Mff-Ala-Cha-hAr-Leu-Leu-Pro-Glu-Thr-Gly-Gly [Peptide B9_LPETGG]
- BLI result [2, 4]: inhibition
